Positions count from the first letter of the chain named. No end group written: not given here.
B1: 4060210 (peptide)
chain: GAPLEPTYPGDDATPEQLAKYAAELRRYINKLTRPRY
B2: 4059955 (peptide)
chain: AAPLEPHYPGDNATPEQMARYYSELRRYINKLTRPRY
B3: compound of SEQ ID NO:171 (code 7218) (peptide)
peptide: AAPLEPVYPGDNATPEQMAQYAADLRRYINKLTRPRY
modifications: ends and bridges not checked
B4: 7216 (peptide)
chain: B3 peptide with A1D, D24A
B5: 7162 (peptide)
chain: B3 peptide with A1G, Q20H, D24E, K31M
B6: 7220 (peptide)
chain: B3 peptide with A1P
B7: 7219 (peptide)
chain: B3 peptide with A1D
B8: compound of SEQ ID NO:168 (Ala 0, Ala 23 and Lys 30, code 7215) (peptide)
peptide: B3 peptide with D24A
B9: 7117 (peptide)
chain: B3 peptide with A1C, K31C
B10: 7143 (peptide)
chain: B3 peptide with A1P, V7F, Q20H, K31T
B11: 7161 (peptide)
chain: B3 peptide with A1P, Q20H, D24E, K31M
B12: 7159 (peptide)
chain: B3 peptide with A1G, Q20H, D24E, K31T
B13: 7217 (peptide)
chain: B3 peptide with A1P, D24A
B14: 7123 (peptide)
chain: PAPLEPVYPGDNATPEEINHYYSALRRYINMLTRPRY
B15: 7135 (peptide)
chain: APLEPVYPGDDATPQQIAHYYSELRRYINMLTRPRY
B16: 7136 (peptide)
chain: B15 chain with I17M
B17: 7133 (peptide)
chain: PAPLEPVYPGDDATPQEIVHYFIELRRYINTLTRPRY
B18: 7101 (peptide)
chain: PLEPVYPGDNATPEELVKYYSALRRYINMLTRPRY
B19: 7112 (peptide)
chain: AAPLEPVYPGDNATPEELVKYYSALRRYINLLTRPRY
B20: 7114 (peptide)
chain: B19 chain with A1P, L31M, P35H
B21: 7104 (peptide)
chain: B19 chain with A1P, R27H, L31M
B22: 7110 (peptide)
chain: B19 chain with A1P, S23A, A24S, L31M
B23: 7102 (peptide)
chain: B19 chain with A1G, L31M
B24: 7164 (peptide)
chain: APLEPVYPGDNATPEQNLAHYAAELRRYINMLTRPRY
B25: 7149 (peptide)
chain: B15 chain with V6E, I17M, Y21A, S22A
B26: 7115 (peptide)
chain: APLEPVYPGDNATPEQMAQYAADLRRYINCLTRPRY
B27: 7230 (peptide)
chain: B26 chain with V6K, D23A, C30M
B28: 7231 (peptide)
chain: B26 chain with V6K, D23A, C30K
B29: compound of SEQ ID NO:167 (code 7214) (peptide)
peptide: B26 chain with D23A, C30K
B30: 7160 (peptide)
chain: B26 chain with Q19H, D23E, C30M
B31: 7165 (peptide)
chain: B15 chain with Q15E, I17M, Y21A, S22A
B32: 7148 (peptide)
chain: AAPLEPFYPGDDATPQQIAHYAAELRRYINTLTRPRY
B33: 6866 (peptide)
chain: B32 chain with F7V, I18M, H20Q, T31M
B34: 7144 (peptide)
chain: B32 chain with I18M, T31M
B35: 7158 (peptide)
chain: B3 peptide with Q20H, D24E, K31T
B36: 7145 (peptide)
chain: B32 chain with A1P, I18M, T31M
B37: 7146 (peptide)
chain: B32 chain with A1H, I18M, T31M
B38: 7147 (peptide)
chain: B32 chain with I18M
B39: 7150 (peptide)
chain: B32 chain with A1P, F7E, I18M, T31M
B40: 7137 (peptide)
chain: PAPLEPVYPGDDATPQQMAHYYSELRRYINMLTRPRY
B41: 7139 (peptide)
chain: B40 chain with P1H
B42: 7138 (peptide)
chain: B40 chain with P1A
B43: 7122 (peptide)
chain: APLEPVYPGDNATPEEINHYYSALRRYINMLTRPRY
B44: 7111 (peptide)
chain: B43 chain with I17L, N18V, H19K, M30L
B45: 7113 (peptide)
chain: B43 chain with I17L, N18V, H19K, P34H
B46: 7125 (peptide)
chain: B43 chain with N18V, Y21F, S22I, A23E
B47: 7121 (peptide)
chain: B43 chain with H19R
B48: 7103 (peptide)
chain: B43 chain with I17L, N18V, H19K, R26H
B49: 7105 (peptide)
chain: B43 chain with I17L, N18V, R26H
B50: 7109 (peptide)
chain: APLEPVYPGDNATPEELVKYYASLRRYINMLTRPRY
B51: 7124 (peptide)
chain: B50 chain with L17I, Y21F, A22I, S23E
B52: 7163 (peptide)
chain: B50 chain with Y21A, S23E
B53: 7108 (peptide)
chain: PAPLEPVYPGDNATPEELVKYYASLRHYINMLTRPRY
B54: 6859 (peptide)
chain: B14 chain with P1H, I18L, S23A, A24S
B55: 6829 (peptide)
chain: B26 chain with V6F, D23E, C30M
B56: 6809 (peptide)
chain: B26 chain with V6F, D23A, R26K, C30M
B57: 6841 (peptide)
chain: B43 chain with N11D, I17L
B58: compound of SEQ ID NO:72 (code 6674) (peptide)
peptide: B50 chain with A1K, V18N, K19R
B59: 6851 (peptide)
chain: B50 chain with A22I, S23E

Target: T1, human Y4 receptor (human, UniProt P50391 1-375)
T1 sequence (P50391 whole entry): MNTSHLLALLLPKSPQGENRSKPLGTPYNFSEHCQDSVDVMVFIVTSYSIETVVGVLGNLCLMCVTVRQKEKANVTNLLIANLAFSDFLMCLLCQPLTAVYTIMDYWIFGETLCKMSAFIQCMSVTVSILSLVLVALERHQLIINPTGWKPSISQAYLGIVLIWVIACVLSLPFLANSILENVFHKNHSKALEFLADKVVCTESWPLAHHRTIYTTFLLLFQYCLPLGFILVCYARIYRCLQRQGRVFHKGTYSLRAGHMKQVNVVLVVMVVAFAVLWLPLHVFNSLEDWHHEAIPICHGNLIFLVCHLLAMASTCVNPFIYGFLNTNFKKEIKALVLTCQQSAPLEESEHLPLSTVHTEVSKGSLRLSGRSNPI
Experiment: 125I-PP displacement

Binder	IC50 [pM]
B1	106
B2	44

Target: T1, human Y4 receptor
Experiment: 125I-PP displacement
Remark: another data set of the same source

Binder	IC50 [pM]
B3	150
B4	109
B5	219
B6	100
B7	220
B8	57
B9	351
B10	188
B11	188
B12	165
B13	66
B14	90
B15	180
B16	149
B17	173
B18	69
B19	95
B20	166
B21	225
B22	110
B23	114
B24	223
B25	119
B26	229
B27	210
B28	89

Binder	IC50 [pM]
B29	106
B30	150
B31	183
B32	160
B33	170
B34	216
B35	146
B36	165
B37	149
B38	148
B39	169
B40	72
B41	137
B42	130
B43	118
B44	77
B45	84
B46	100
B47	120
B48	200
B49	150
B50	83
B51	310
B52	146
B53	250

Target: T1, human Y4 receptor
Experiment: 125I-PP displacement
Remark: another data set of the same source

Binder	IC50 [pM]
B54	150
B55	200
B56	210
B57	160
B58	76
B59	110

From patent US20100279930A1 (published 2010)
